Laboratory results from patent US20040229288A1 (AJINOMOTO, published 2004).

Columns and labels:
[1] = target: GPIb-mIgG2aFc chimeric protein (N-terminus side region of human glycoprotein Ib, amino acid numbers 1-319, fused to the Fc region of mouse immunoglobulin γ2a) (human (glycoprotein Ib part); mouse (immunoglobulin γ2a Fc part)); assay: Eu-labelled vWF on captured chimeric protein, ristocetin 2 mg/ml, competitor recombinant AS1051 at 20 µg/ml
[2] = target: GPIb-mIgG2aFc chimeric protein (N-terminus side region of human glycoprotein Ib, amino acid numbers 1-319, fused to the Fc region of mouse immunoglobulin γ2a) (human (glycoprotein Ib part); mouse (immunoglobulin γ2a Fc part)); assay: Eu-labelled vWF on captured chimeric protein, ristocetin 1 mg/ml, competitor recombinant AS1051 at 20 µg/ml
[3] = target: GPIb-mIgG2aFc chimeric protein (N-terminus side region of human glycoprotein Ib, amino acid numbers 1-319, fused to the Fc region of mouse immunoglobulin γ2a) (human (glycoprotein Ib part); mouse (immunoglobulin γ2a Fc part)); assay: Eu-labelled vWF (500 ng/ml) on captured chimeric protein, ristocetin 0 mg/ml, no inhibitor
[4] = target: GPIb-mIgG2aFc chimeric protein (N-terminus side region of human glycoprotein Ib, amino acid numbers 1-319, fused to the Fc region of mouse immunoglobulin γ2a) (human (glycoprotein Ib part); mouse (immunoglobulin γ2a Fc part)); assay: Eu-labelled vWF on captured chimeric protein, ristocetin 0 mg/ml, competitor recombinant AS1051 at 20 µg/ml
[5] = target: GPIb-mIgG2aFc chimeric protein (N-terminus side region of human glycoprotein Ib, amino acid numbers 1-319, fused to the Fc region of mouse immunoglobulin γ2a) (human (glycoprotein Ib part); mouse (immunoglobulin γ2a Fc part)); assay: Eu-labelled vWF (500 ng/ml) on captured chimeric protein, ristocetin 0.25 mg/ml, no inhibitor
[6] = target: GPIb-mIgG2aFc chimeric protein (N-terminus side region of human glycoprotein Ib, amino acid numbers 1-319, fused to the Fc region of mouse immunoglobulin γ2a) (human (glycoprotein Ib part); mouse (immunoglobulin γ2a Fc part)); assay: Eu-labelled vWF with botrocetin on captured chimeric protein, in the presence of the competitor AJvW-2 (as the table names it)
[7] = target: GPIb-mIgG2aFc chimeric protein (N-terminus side region of human glycoprotein Ib, amino acid numbers 1-319, fused to the Fc region of mouse immunoglobulin γ2a) (human (glycoprotein Ib part); mouse (immunoglobulin γ2a Fc part)); assay: Eu-labelled vWF on captured chimeric protein, ristocetin 0.25 mg/ml, competitor recombinant AS1051 at 20 µg/ml
[8] = target: GPIb-mIgG2aFc chimeric protein (N-terminus side region of human glycoprotein Ib, amino acid numbers 1-319, fused to the Fc region of mouse immunoglobulin γ2a) (human (glycoprotein Ib part); mouse (immunoglobulin γ2a Fc part)); assay: Eu-labelled vWF (500 ng/ml) on captured chimeric protein, ristocetin 1 mg/ml, no inhibitor
[9] = target: GPIb-mIgG2aFc chimeric protein (N-terminus side region of human glycoprotein Ib, amino acid numbers 1-319, fused to the Fc region of mouse immunoglobulin γ2a) (human (glycoprotein Ib part); mouse (immunoglobulin γ2a Fc part)); assay: Eu-labelled vWF on captured chimeric protein, ristocetin 0.5 mg/ml, competitor recombinant AS1051 at 20 µg/ml
[10] = target: GPIb-mIgG2aFc chimeric protein (N-terminus side region of human glycoprotein Ib, amino acid numbers 1-319, fused to the Fc region of mouse immunoglobulin γ2a) (human (glycoprotein Ib part); mouse (immunoglobulin γ2a Fc part)); assay: Eu-labelled vWF (500 ng/ml) on captured chimeric protein, ristocetin 2 mg/ml, no inhibitor
[11] = target: GPIb-mIgG2aFc chimeric protein (N-terminus side region of human glycoprotein Ib, amino acid numbers 1-319, fused to the Fc region of mouse immunoglobulin γ2a) (human (glycoprotein Ib part); mouse (immunoglobulin γ2a Fc part)); assay: Eu-labelled vWF (500 ng/ml) on captured chimeric protein, ristocetin 0.5 mg/ml, no inhibitor
[12] = target: GPIb-mIgG2aFc chimeric protein (N-terminus side region of human glycoprotein Ib, amino acid numbers 1-319, fused to the Fc region of mouse immunoglobulin γ2a) (human (glycoprotein Ib part); mouse (immunoglobulin γ2a Fc part)); assay: Eu-labelled vWF (500 ng/ml solution) with botrocetin (500 ng/ml) on chimeric protein captured by anti-mouse immunoglobulin antibodies, no inhibitor
[13] = target: T1, human von Willebrand factor (human, UniProt P04275 764-2813); assay: ELISA: GPIb-mIgGlFc culture supernatant on vWF immobilised with botrocetin, detected with biotinylated anti-mouse IgG-Fc antibodies
T1 construct: also called vWF; von Willebrand factor labeled with europium (Eu)
Experimental: Immobilization of a mixed solution of von Willebrand factor and botrocetin on a 96-well multititer plate was attained as follows. First, a physiological saline solution of von Willebrand factor (250 μg/ml) and a physiological saline solution of botrocetin (500 μg/ml), which were prepared in a conventional manner, were appropriately diluted, and mixed at the concentration ratios shown in FIG. 2. Then, 50 μl of each mixture was added to each well of a 96-well multititer plate (Maxisorp, produced by Nunc). The plate was left stand overnight at 4° C., and then each well was washed once with a physiological Tris buffer (150 μl, 20 mM Tris-HCl (pH 7.4), 0.15 M sodium chloride; Tris buffered saline, referred to as “TBS” hereinafter). Then, each well was added with 100 μl of TBS containing 10% BSA (bovine serum albumin), left stand for about 3 hours, and washed 3 times with TBS to obtain a von Willebrand factor immobilized plate. […]

[14] = target: T1, human von Willebrand factor; assay: Ratio of control count to count with AS1051; Eu-labelled chimeric protein on vWF immobilised with botrocetin
Experimental: The binding of the europium (Eu) labeled chimeric protein and the von Willebrand factor immobilized in the presence of botrocetin prepared as described above was detected as follows. According to the method mentioned in Example 4 <1>, a mixed solution (TBS) containing 2.5 μg/ml of von Willebrand factor and 2.5 μg/ml of botrocetin was added to each well of a 96-well multititer plate (microtitration plate DELFIA, 1244-550, produced by Wallac), immobilized overnight and subjected to washing, blocking and washing to prepare a von Willebrand factor immobilized plate.
Each well of the above plate was added with 25 μl of an assay buffer containing 0.5% BSA (Assay Buffer, Wallac DELFIA 1244-106, produced by Wallac, Composition: 0.5% BSA, 0.05% bovine γ-globulin, 0.01% Tween-40, 20 μM DTPA (diethylenetriamine […] acid), 50 mM Tris-HCl buffered saline (pH 7.8), 0.05% sodium azide) or the recombinant AS1051 (in which Cys81 was replaced with Ala, N. Fukuchiet al., WO 95/08573) at a final concentration of 20 μg/ml as the binding inhibition substance, further added with 25 μl of a solution of europium. […] Then, the amount of europium (Eu) was measured by using a DELFIA Research fluorophotometer (1230 ARCUS Fluorometer, produced by Wallac, measurement time: 1 second). […]

[15] = target: T1, human von Willebrand factor; assay: Ratio of control count to count with inhibitor; Eu-labelled chimeric protein on immobilised vWF, botrocetin in liquid phase
Experimental: A TBS solution (50 μl) containing human von Willebrand factor (2.5 μg/ml) was added to each well of a 96-well plate, and the von Willebrand factor was immobilized as a solid phase overnight at 4° C. Each well was washed once with TBS (150 μl) and blocked with TBS containing 5% BSA for about 3 hours. Each well of the plate was washed twice with TBS (150 μl), and then added with 25 μl of an assay buffer (Assay Buffer, Wallac DELFIA 1244-106, produced by Wallac, composition was mentioned in Example 4 <2>) or a recombinant AS1051 (in which Cys81 was replaced with Ala) at a final concentration of 20 μg/ml, further added with the assay buffer (25 μl) containing the europium (Eu)-labeled chimeric protein prepared in Example 4 <2> (100 ng/ml) and botrocetin (500 ng/ml), and left stand at room temperature for 3 hours. Each well of the plate was washed 5 times with TBS ([…]) containing 0.05% Tween-20, then added with 100 μl of a fluorescence enhancement buffer (Enhancement solution, 1244-104, produced by Wallac, composition was mentioned in Example 4 <2>), and shaken for 1 minute. Then, the amount of europium (Eu) was measured by using a 1420 ARVO multi-label counter (produced by Wallac, measurement time: 1 second). The measured values (with no addition of sample or addition of the inhibition sample) and CV value (deviation, %) are shown in Table 2.

## human von Willebrand factor (from UniProt P04275 764-2813) (ligand)
[1]
  Binding amount in the presence of inhibition substance (count): 6880 counts
[2]
  Binding amount in the presence of inhibition substance (count): 3020 counts
[3]
  Binding amount (count): 2820 counts
[4]
  Binding amount in the presence of inhibition substance (count): 3250 counts
[5]
  Binding amount (count): 3010 counts
[6]
  Average value of count with addition of AJvW-2 (10 µg/ml): 2340 counts
[7]
  Binding amount in the presence of inhibition substance (count): 3080 counts
[8]
  Binding amount (count): 13300 counts
[9]
  Binding amount in the presence of inhibition substance (count): 1850 counts
[10]
  Binding amount (count): 46200 counts
[11]
  Binding amount (count): 3660 counts
[12]
  Average value of count in control: 37300 counts

B1: GPIb-mIgGlFc chimeric protein (N-terminal region of human glycoprotein Ibα chain fused to the Fc region of mouse immunoglobulin γ1) (Fc fusion)
chain: HPICEVSKVASHLEVNCDKRNLTALPPDLPKDTTILHLSENLLYTFSLATLMPYTRLTQLNLDRCELTKLQVDGTLPVLGTLDLSHNQLQSLPLLGQTLPALTVLDVSFNRLTSLPLGALRGLGELQELYLKGNELKTLPPGLLTPTPKLEKLSLANNNLTELPAGLLNGLENLDTLLLQENSLYTIPKGFFGSHLLPFAFLHGNPWLCNCEILYFRRWLQDNAENVYVWKQGVDVKAMTSNVASVQCDNSDKFPVYKYPGKGCPTLGDEGDTDLYDYYPEEDTEGDKVRATRTVVKFPTKAHTTPWGLFYSWSTASLDVPRDCGCKPCICTVPEVSSVFIFPPKPKDVLTITLTPKVTCVVVDISKDDPEVQFSWFVDDVEVHTAQTQPREEQFNSTFRSVSELPIMHQDWLNGKEFKCRVNSAAFPAPIEKTISKTKGRPKAPQVYTIPPPKEQMAKDKVSLTCMITDFFPEDITVEWQWNGQPAENYKNTQPIMDTDGSYFVYSKLNVQKSNWEAGNTFTCSVLHEGLHNHHTEKSLSHSPGK
notes: Used as serum-free culture supernatant of transfected CHOdhfr- cells, diluted 8-fold, not purified; also called GPIb-mIgG1Fc; GPIbFcFH
[13]
  binding result: binds

B2: GPIb-mIgG2aFc chimeric protein (N-terminus side region of human glycoprotein Ib, amino acid numbers 1-319, fused to the Fc region of mouse immunoglobulin γ2a) (Fc fusion)
chain: HPICEVSKVASHLEVNCDKRNLTALPPDLPKDTTILHLSENLLYTFSLATLMPYTRLTQLNLDRCELTKLQVDGTLPVLGTLDLSHNQLQSLPLLGQTLPALTVLDVSFNRLTSLPLGALRGLGELQELYLKGNELKTLPPGLLTPTPKLEKLSLANNNLTELPAGLLNGLENLDTLLLQENSLYTIPKGFFGSHLLPFAFLHGNPWLCNCEILYFRRWLQDNAENVYVWKQGVDVKAMTSNVASVQCDNSDKFPVYKYPGKGCPTLGDEGDTDLYDYYPEEDTEGDKVRATRTVVKFPTKAHTTPWGLFYSWSTASLDEPRGPTIKPCPPCKCPAPNLLGGPSVFIFPPKIKDVLMISLSPIVTCVVVDVSEDDPDVQISWFVNNVEVHTAQTQTHREDYNSTLRVVSALPIQHQDWMSGKEFKCKVNNKDLPAPIERTISKPKGSVRAPQVYVLPPPEEEMTKKQVTLTCMVTDFMPEDIYVEWTNNGKTELNYKNTEPVLDSDGSYFMYSKLRVEKKNWVERNSYSCSVVHEGLHNHHTTKSFSRTPGK
notes: Purified on Protein A from CHOK1 culture supernatant; also called europium (Eu) labeled chimeric protein
[14]
  S/N ratio: 28.5
[15]
  S/N ratio: 35
